According to patent US20060251734A1:

Experiments:
[1] = test system: T1, mutated cdc2 peptide with Phe-15 substituted for Tyr-15 (IEKIGEGTFGVVYK)
T1 sequence: IEKIGEGTFGVVYK

[2] = molecular target: cdc2 peptide (amino acids 7 to 20; …); assay: cell-based or functional assay

Row | Substance | phosphorylation of the mutated cdc2 peptide (Tyr-15 to Phe-15) by anti-Lyn immune complexes [1] | phosphorylation of the cdc2 peptide by anti-Lyn immune complexes from MMC-treated cells against control cells [2]
1 | p56/p53^lyn tyrosine kinase | there was little phosphorylation of the mutated cdc2 peptide with anti-Lyn complexes from control or MMC-treated cells | 
2 | p56/p53^lyn tyrosine kinase (from UniProt P07948 2-512) (enzyme) |  | 2 fold
